In patent US20100210517A1 (RAPTOR PHARMACEUTICAL, published 2010):

T1: MAT CR12 (human, UniProt Q9Y5Y6 452-524)
T1 construct: also called ST14 CR12; matriptase CR12
T1 sequence: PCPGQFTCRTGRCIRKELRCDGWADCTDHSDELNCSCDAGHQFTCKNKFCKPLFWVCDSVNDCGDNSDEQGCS


How the values were obtained:
[1] = target: T1, MAT CR12; experiment: binding of truncated MatRAP1 forms to MAT CR12, relative signal under isomolar conditions
Protocol: (§1) Solid phase binding assays-Purified, refolded CR protein (1 μg) was bound to Nunc Maxisorp™ 96-well plates in TBS pH 8 supplemented with 5 mM CaCl₂ (TBSC) overnight at 4° C. Wells were washed with TBSC and then blocked with TBSC containing 2% bovine serum albumin (BSA). […] Control wells contained no added ligand. As an additional control, to determine whether the absence of calcium affected binding, 10 mM EGTA was included in the incubation medium for some samples. […] Excess primary antibody was removed and wells washed before incubation with the secondary antibody, HRP-conjugated goat anti rabbit IgG (Bio-Rad). After washing, TMB substrate solutions (Bio-Rad) were added to detect HRP. Color development was stopped with 1N HCl. Absorption at 450 nm was measured with a microplate spectrophotometer (Molecular Devices). Data were plotted and Kd values derived by non-linear regression with the assumption of single-site binding (GraphPad Prism).

[2] = target: T2, MAT CR23 (human); experiment: solid-phase binding assay; target not given, MAT CR23 is the pair MatRAP1 was selected on
T2 construct: range 487-566; also called ST14 CR23; matriptase CR23
T2 sequence (Q9Y5Y6 487-566): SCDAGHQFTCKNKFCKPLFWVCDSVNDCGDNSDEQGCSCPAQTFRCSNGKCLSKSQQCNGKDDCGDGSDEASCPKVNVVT
Protocol: as §1

[3] = target: T3, LRP2 CR89 (human, UniProt P98164 1025-1102); experiment: solid-phase assay on coated CR protein, single-site non-linear fit
T3 construct: domain: CR89; also called YVWR; L2 CR89; not shown: N-terminal hexahistidine and S-peptide tags of pET30(+)a
T3 sequence (P98164 1025-1102): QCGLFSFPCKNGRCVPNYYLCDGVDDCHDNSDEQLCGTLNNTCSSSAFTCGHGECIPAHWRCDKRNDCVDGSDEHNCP
Protocol: (§2) Data were plotted and fitted by non-linear regression with the assumption of a single binding site (GraphPad Prism). Kd values with standard deviations were derived from the regression analysis.
as §1

[4] = target: T4, LRP1 CR3-5 (human); experiment: as above
T4 construct: range 852-973; also called L1 CR3-5
T4 sequence (Q07954 852-973): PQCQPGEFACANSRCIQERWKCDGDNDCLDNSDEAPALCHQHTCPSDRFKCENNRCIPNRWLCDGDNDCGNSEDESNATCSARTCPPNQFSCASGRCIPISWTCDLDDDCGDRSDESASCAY
Protocol: as §2, §1

[5] = target: T3, LRP2 CR89; experiment: solid-phase assay; OD at the highest ligand concentration as percent of the highest OD of all ligands
Protocol: as §1

[6] = target: T4, LRP1 CR3-5; experiment: as above
Protocol: as §1

[7] = target: T3, LRP2 CR89; experiment: solid-phase binding assay, CR protein coated on plate, anti-RAP detection
[8] = target: T4, LRP1 CR3-5; experiment: as above
[9] = target: T3, LRP2 CR89; experiment: solid-phase assay on coated CR protein, anti-RAP detection, A450
Protocol: as §2, §1

Binder	Kd [3] [nM]	% max [5] [%]	% max [6] [%]	binding result [9]	also measured
MatRAP1 truncated by 52 amino acids at the N-terminus (ligand, Range derived from the number of residues removed (52 total); also called MatRAP1 N-52; not shown: N-terminal hexahistidine and S-peptide tags of pET30(+)a) KIERHNHYQKQLEIAHEWLRHAESVGDGERVSRSREKHALLEGRTKELGYTVKKHLQDLSGRISRAR					binding result [1]: no binding
MatRAP1 truncated variant, amino acids 243-313 (71 amino acids) (ligand, also called best truncated variant; not shown: N-terminal hexahistidine and S-peptide tags of pET30(+)a) FREELKHFGAKIERHNHYQKQLEIAHEWLRHAESVGDGERVSRSREKHALLEGRTKELGYTVKKHLQDLSG					fold increase in affinity over MatRAP1 N-42 [2]: 4 fold; fold increase in affinity over the full-length d3 variant [2]: 12 fold; fnctn (relative binding signal under isomolar conditions) [1]: 2.7
MatRAP1 truncated by 31 amino acids at the N-terminus (ligand, Range derived from the number of residues removed; also called MatRAP1 N-31; not shown: N-terminal hexahistidine and S-peptide tags of pET30(+)a) SANLTDKELEAFREELKHFGAKIERHNHYQKQLEIAHEWLRHAESVGDGERVSRSREKHALLEGRTKELGYTVKKHLQDLSGRISRAR					fnctn (relative binding signal under isomolar conditions) [1]: 0.35
MegaRAP1 d3 double revertant A256K, E270K (ligand, not shown: N-terminal hexahistidine and S-peptide tags of pET30(+)a) LDRLRRVSHQGYTTEAKFEEPRVIDLWDLAQSANLTDKELEAFREELKYFKAKIEKHNHYQKQLEIAHEKLRHAESVGDGERVSRSREKHALLEGRTKELGYTVKKHLQDLSGRISRAR	72	73	93		Kd [4]: 4 nM; fold loss of affinity against the E270K revertant [7]: 2 fold; fold improvement in affinity against the E270K single-site revertant [8]: ~30 fold
MegaRAP1 d3 revertant K251E (ligand, not shown: N-terminal hexahistidine and S-peptide tags of pET30(+)a) LDRLRRVSHQGYTTEAKFEEPRVIDLWDLAQSANLTDKELEAFREELKYFEAKIEAHNHYQKQLEIAHEELRHAESVGDGERVSRSREKHALLEGRTKELGYTVKKHLQDLSGRISRAR		11	2	no binding (tested: 100 nM)	
RAP d3 forward mutant K270E (ligand, also called K270E alone; not shown: N-terminal hexahistidine and S-peptide tags of pET30(+)a) LDRLRRVSHQGYSTEAEFEEPRVIDLWDLAQSANLTDKELEAFREELKHFEAKIEKHNHYQKQLEIAHEELRHAESVGDGERVSRSREKHALLEGRTKELGYTVKKHLQDLSGRISRAR		2	4	no binding (tested: 100 nM)	
RAP d3 forward mutant E251K (ligand, The paragraph gives only the position; the change E251K follows from the mutagenic primers; not shown: N-terminal hexahistidine and S-peptide tags of pET30(+)a) LDRLRRVSHQGYSTEAEFEEPRVIDLWDLAQSANLTDKELEAFREELKHFKAKIEKHNHYQKQLEIAHEKLRHAESVGDGERVSRSREKHALLEGRTKELGYTVKKHLQDLSGRISRAR		5	100	no binding (tested: 100 nM)	Kd [4]: 7 nM
MegaRAP1 d3 revertant Y249H (ligand, MegaRAP1 d3 with position 249 reverted to wild type; not shown: N-terminal hexahistidine and S-peptide tags of pET30(+)a) LDRLRRVSHQGYTTEAKFEEPRVIDLWDLAQSANLTDKELEAFREELKHFKAKIEAHNHYQKQLEIAHEELRHAESVGDGERVSRSREKHALLEGRTKELGYTVKKHLQDLSGRISRAR		35	2		
RAP d3 forward mutant H249Y (ligand, The paragraph gives only the position; the change H249Y follows from the mutagenic primers; also called single-site RAP d3 mutant at 249; not shown: N-terminal hexahistidine and S-peptide tags of pET30(+)a) LDRLRRVSHQGYSTEAEFEEPRVIDLWDLAQSANLTDKELEAFREELKYFEAKIEKHNHYQKQLEIAHEKLRHAESVGDGERVSRSREKHALLEGRTKELGYTVKKHLQDLSGRISRAR		2	90	no binding (tested: 100 nM)	Kd [4]: 28 nM
RAP d3 forward mutant K256A, K270E (ligand, also called K270E in combination with K256A; not shown: N-terminal hexahistidine and S-peptide tags of pET30(+)a) LDRLRRVSHQGYSTEAEFEEPRVIDLWDLAQSANLTDKELEAFREELKHFEAKIEAHNHYQKQLEIAHEELRHAESVGDGERVSRSREKHALLEGRTKELGYTVKKHLQDLSGRISRAR		3	2	no binding (tested: 100 nM)	
MegaRAP1 d3 revertant T213S (ligand, MegaRAP1 d3 with position 213 reverted to wild type; not shown: N-terminal hexahistidine and S-peptide tags of pET30(+)a) LDRLRRVSHQGYSTEAKFEEPRVIDLWDLAQSANLTDKELEAFREELKYFKAKIEAHNHYQKQLEIAHEELRHAESVGDGERVSRSREKHALLEGRTKELGYTVKKHLQDLSGRISRAR	19	94	2		
MegaRAP1 d3 revertant A256K (ligand, not shown: N-terminal hexahistidine and S-peptide tags of pET30(+)a) LDRLRRVSHQGYTTEAKFEEPRVIDLWDLAQSANLTDKELEAFREELKYFKAKIEKHNHYQKQLEIAHEELRHAESVGDGERVSRSREKHALLEGRTKELGYTVKKHLQDLSGRISRAR		2	6	no binding (tested: 100 nM)	
RAP d3 forward mutant E217K (ligand, The paragraph gives only the position; the change E217K follows from the mutagenic primers and the MegaRAP1 mutation set; also called single-site RAP d3 mutant at 217; not shown: N-terminal hexahistidine and S-peptide tags of pET30(+)a) LDRLRRVSHQGYSTEAKFEEPRVIDLWDLAQSANLTDKELEAFREELKHFEAKIEKHNHYQKQLEIAHEKLRHAESVGDGERVSRSREKHALLEGRTKELGYTVKKHLQDLSGRISRAR		5	91	no binding (tested: 100 nM)	Kd [4]: 9 nM
RAP d3 forward mutant E251K, K270E (ligand, also called K270E in combination with E251K; not shown: N-terminal hexahistidine and S-peptide tags of pET30(+)a) LDRLRRVSHQGYSTEAEFEEPRVIDLWDLAQSANLTDKELEAFREELKHFKAKIEKHNHYQKQLEIAHEELRHAESVGDGERVSRSREKHALLEGRTKELGYTVKKHLQDLSGRISRAR		2	4	no binding (tested: 100 nM)	
RAP d3 forward mutant E251K, K256A, K270E (ligand, also called triple mutant; not shown: N-terminal hexahistidine and S-peptide tags of pET30(+)a) LDRLRRVSHQGYSTEAEFEEPRVIDLWDLAQSANLTDKELEAFREELKHFKAKIEAHNHYQKQLEIAHEELRHAESVGDGERVSRSREKHALLEGRTKELGYTVKKHLQDLSGRISRAR	114	40	2		
MegaRAP1 d3 revertant E270K (ligand, MegaRAP1 d3 with position 270 reverted to wild type; also called MegaRAP1 d3 E270K; E270K revertant; not shown: N-terminal hexahistidine and S-peptide tags of pET30(+)a) LDRLRRVSHQGYTTEAKFEEPRVIDLWDLAQSANLTDKELEAFREELKYFKAKIEAHNHYQKQLEIAHEKLRHAESVGDGERVSRSREKHALLEGRTKELGYTVKKHLQDLSGRISRAR	8	100			Kd [4]: 114 nM; Kd [8]: 142 nM
MegaRAP1 d3 double revertant K251E, E270K (ligand, not shown: N-terminal hexahistidine and S-peptide tags of pET30(+)a) LDRLRRVSHQGYTTEAKFEEPRVIDLWDLAQSANLTDKELEAFREELKYFEAKIEAHNHYQKQLEIAHEKLRHAESVGDGERVSRSREKHALLEGRTKELGYTVKKHLQDLSGRISRAR	153	16	16		fold difference in affinity against the single-site E270K revertant [7]: ~20 fold
MegaRAP1 d3 revertant K217E (ligand, MegaRAP1 d3 with position 217 reverted to wild type; not shown: N-terminal hexahistidine and S-peptide tags of pET30(+)a) LDRLRRVSHQGYTTEAEFEEPRVIDLWDLAQSANLTDKELEAFREELKYFKAKIEAHNHYQKQLEIAHEELRHAESVGDGERVSRSREKHALLEGRTKELGYTVKKHLQDLSGRISRAR	25	88	2		
MatRAP1 truncated by 10 amino acids at the N-terminus (ligand, Range derived: d3 starts at 201 and 10 residues were removed; also called MatRAP1 N-10; not shown: N-terminal hexahistidine and S-peptide tags of pET30(+)a) GYSTEAEFEEPRVIDLWDLAQSANLTDKELEAFREELKHFGAKIERHNHYQKQLEIAHEWLRHAESVGDGERVSRSREKHALLEGRTKELGYTVKKHLQDLSGRISRAR					fnctn (relative binding signal under isomolar conditions) [1]: 0.1
MatRAP1 N-42 without the C-terminal linker and affinity tag (ligand, Range derived; not shown: N-terminal hexahistidine and S-peptide tags of pET30(+)a) FREELKHFGAKIERHNHYQKQLEIAHEWLRHAESVGDGERVSRSREKHALLEGRTKELGYTVKKHLQDLSGRISRAR					fold increase in affinity over MatRAP1 N-42 [2]: 2 fold
